Reference: the supplement of paper PMC10567573

B1: AUP1 (parent)
chain: FCASTRLPPTPLLLFPEEEATNGR
B2: ZNF649 (parent)
chain: LVAHQRYHTGKTPFVCPECGQPCS

Variants of: B1
Assay: protein stability index of a GFP-peptide fusion (GPS, HEK-293T) (PSI 1-6); higher = more stable
Details: c terminus: a fixed tail appended
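Further: lentivirally expressed fusions sorted by FACS into six bins by GFP to DsRed ratio, PSI derived from sequencing read proportions per bin multiplied by bin number.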

Protein stability index of substitutions, site by site:
G23: R 2.59, S 2.94, W 1.69, A 2.86, P 2.75, M 2.54, F 2, Y 2.32, C 2.65
N22: E 3.39, L 2.19, M 2.56, T 3.27
C2: L 3.39, R 3.81, V 1.55, Y 3.31, G 4.33, Q 3.58, F 3.1, E 4.91, N 3.82
T10: L 2.23, M 2.28, C 2.33, V 2.39, Q 3.13, D 2.84, Y 1.99, N 2.92, E 3.23
R24: D 3.3, S 3.01, G 3.69, T 3.24, H 2.76, P 3
E17: G 2.31, M 2.51, V 2.09, S 1.8
L7: M 3, V 3.31, E 3.24, Q 3.16
P9: V 2.62, W 2.97, D 2.74, M 1.84, Y 2.03, Q 2.62, T 2.46, E 2.89, L 2.11, H 2.56
F1: Q 4.54, R 4.24, I 4.27, V 4.27, L 3.9, M 4.27, A 4.17, G 4.27
P8: D 2.92, L 1.96, W 2.27, Y 1.9, E 2.91
L12: E 4.1, V 3.31, K 3.6, R 3.12, F 3.16
T5: L 2.11, V 2.83, H 2.66, Q 2.86, S 2.64, E 3.77, D 3.44
L14: S 3.44, A 3.58, Q 3.88, C 2.4, T 3.41, W 1.38, P 3.48, E 3.74, Y 2.59
F15: E 3.46, Y 2.61, W 2.68, M 3.12, L 3.44, K 3.11, S 3.45, I 3.23
L13: C 3.01, I 2.77, N 3.12, M 3.15, A 3.43
P16: M 2.15, R 2.19, N 2.9, S 2.4, I 1.62, E 3.48, A 2.68
E18: F 1.82, H 2.15, G 2.54, W 1.73
S4: V 3.08, Y 2.28, H 3.05, M 2.59, F 2.54, I 2.49
R6: A 3.37, V 3.42, Q 3.49, H 3.25, G 2.7, N 3.5, L 2.73
T21: G 2.68, L 2.37, M 2.46, V 2.7
E19: T 2.68, D 2.68, F 1.73, M 2.08, H 2.23, Q 2.94
A3: E 3.67, I 2.46, D 3.33, P 2.25
A20: F 2.21, L 2.72
P11: E 3.4, G 2.54, I 2.04, Y 1.91, K 2.39, N 2.83, A 2.39

Variants of: B2
Assay: as above
Details: c terminus: a fixed tail appended

Protein stability index, by site and new letter:
L1: G 3.67, I 2.95, R 3.63, A 3.76, E 4.06, K 3.65, V 3.35, M 3.25, T 3.93, H 3.48, D 3.6, S 4.24, Q 3.87, W 2.46, C 4.67, F 2.57, N 4.24, P 4.28
